Experimental data taken from patent US20250059271A1 (BARRELMAN BIOSCIENCES, published 2025).

T1: dProgastrin-SUMO protein (dog, UniProt P01353 22-104)
T1 construct: Unknown whether the listing entry 103 holds the tag; also called dProg-Sumo protein; dog progastrin His-SUMO protein; not shown: N-terminal His-SUMO tag
T1 sequence: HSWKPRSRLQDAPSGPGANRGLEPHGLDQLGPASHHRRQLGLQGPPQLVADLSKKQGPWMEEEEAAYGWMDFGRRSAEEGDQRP


What follows are binders tested against T1, dProgastrin-SUMO protein (assay: ELISA; supernatant 1:2000 on 2 ug/ml dProgastrin-Sumo).
Protocol: Deep well ELISA reading of 46 different monoclonal antibodies against 2 μg/ml dProgastrin-Sumo protein antigen versus 2 μg/ml anti rabbit antibodies. Supernatants containing the antibodies were diluted at 1:2000. […] Monoclonal antibodies with strong specificities against the dProgastrin C terminus at low concentrations include the D6 mAb, A3 mAb, and F4 mAb, among others.

OD	Binder
2.02 OD	dProg-2-D6 mAb (antibody, V domains shown, Recombinant rabbit monoclonal antibody; also called D6 mAb (C terminus); dprogastrin-2_D6) VH: QSVKESEGGLFKPTEPLTLTCTVSGFSLSSDNMGWVRQTPGKQLEWIGWIGSSGSAYYARWAKSRSTITRNTNENTVTLKMTSLTAADTATYFCARSGWGSFDIWGPGTLVTVSS VL: AQVLTQTPSPVSAAVGSTVTISCQSSQSVYSNNRLAWFQQKPGQPPKLLIYLASTLASGVPSRFKGSGSGTQFTLTISEVQCDDAATYYCQGYYSGYIFGFGGGTEVVVKG
2.19 OD	dProg-2-A3 mAb (antibody, V domains shown, Recombinant rabbit monoclonal antibody; same entries as dProg-2-F4; Biotinylated when used for detection; also called dprogastrin-2_A3 mAb) VH: QSVEESRGGLFKPTEPLTLTCTASGFTISSYHMGWVRQTPGKQLEWIGWIGSSGATYYASWATSRSTITRNTNDNTVTLKMTSLTAADTATYFCARSGWGSFDIWGPGALVTVSS VL: AQVLTQTPASVSAAVGGTVTINCQSSQSVYNNDRLAWFQQKPGQPPKLLIYLASTLASGVPSRFKGSGSGTQFTLTIGEVQCDDAATYYCQSYYNGYIFGFGGGTEVVVKG
1.99 OD	dProg-2-F4 mAb (antibody, V domains shown, Recombinant rabbit monoclonal antibody; same entries as dProg-2-A3; also called dprogastrin-2_F4) VH: QSVEESRGGLFKPTEPLTLTCTASGFTISSYHMGWVRQTPGKQLEWIGWIGSSGATYYASWATSRSTITRNTNDNTVTLKMTSLTAADTATYFCARSGWGSFDIWGPGALVTVSS VL: AQVLTQTPASVSAAVGGTVTINCQSSQSVYNNDRLAWFQQKPGQPPKLLIYLASTLASGVPSRFKGSGSGTQFTLTIGEVQCDDAATYYCQSYYNGYIFGFGGGTEVVVKG
